Series [1] deals with T1, Gly-Asp-Asp-Asp-Asp-Lys-β-naphthylamide.
T1 sequence: GDDDDK

Series [2] concerns recombinant fusion protein of Medaka trypsinogen.

Turning to Medaka EP-2 serine protease domain, in series [1], the “enzyme activity for GD4K-βNA” value is “Both enzymes showed maximal activities for GD4K-βNA at pH 8”. Besides, the “conversion of trypsinogen to active trypsin” value in series [2] is “The trypsinogen was converted to active trypsin by EP-1 faster than by EP-2”.

The values above are taken from patent US20080213836.
